Results from publication PMC7235218, “HIV-1 Tat – TLR4/MD2 interaction drives the expression of IDO-1 in monocytes derived dendritic cells through NF-κB dependent pathway” (Scientific Reports, 2020).

Molecular target: T1, Recombinant human TLR4/MD2 complex (human, UniProt O00206 24-631; Q9Y6Y9 19-160)
T1 construct: Toll-like receptor 4 (TLR4), human, soluble recombinant; MD2 (lymphocyte antigen 96), human, recombinant; No catalogue number is printed; also called rTLR4/MD2; soluble recombinant TLR4/MD2; source: bought: R&D system
T1 sequence (O00206 24-631, chain 1 of 2): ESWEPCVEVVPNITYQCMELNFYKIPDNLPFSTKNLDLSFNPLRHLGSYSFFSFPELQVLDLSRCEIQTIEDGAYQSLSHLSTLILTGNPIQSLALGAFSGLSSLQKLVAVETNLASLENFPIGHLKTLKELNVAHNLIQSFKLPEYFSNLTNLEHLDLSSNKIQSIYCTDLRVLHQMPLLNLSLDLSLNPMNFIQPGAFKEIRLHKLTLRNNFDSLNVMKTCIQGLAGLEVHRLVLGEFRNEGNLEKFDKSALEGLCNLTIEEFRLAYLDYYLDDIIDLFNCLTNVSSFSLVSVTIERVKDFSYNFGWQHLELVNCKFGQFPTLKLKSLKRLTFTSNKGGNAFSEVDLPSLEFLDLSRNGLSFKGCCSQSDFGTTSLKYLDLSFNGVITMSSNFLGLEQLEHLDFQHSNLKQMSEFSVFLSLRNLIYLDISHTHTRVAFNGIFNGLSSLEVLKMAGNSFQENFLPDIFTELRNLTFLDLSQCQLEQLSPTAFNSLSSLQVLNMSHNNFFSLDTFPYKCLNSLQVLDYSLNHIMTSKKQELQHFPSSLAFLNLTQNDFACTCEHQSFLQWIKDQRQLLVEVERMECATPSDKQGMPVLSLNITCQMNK
T1 sequence (Q9Y6Y9 19-160, chain 2 of 2): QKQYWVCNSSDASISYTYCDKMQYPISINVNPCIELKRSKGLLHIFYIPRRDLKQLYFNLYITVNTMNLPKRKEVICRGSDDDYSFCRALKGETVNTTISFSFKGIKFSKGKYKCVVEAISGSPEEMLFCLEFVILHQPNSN
Test: ELISA; solid-phase binding assay: recombinant TLR4/MD2 (1 µg/ml) coated on 96 maxisorp well plates overnight at 4 °C; GST or GST-Tat at 0.1-1 µM for 2 hours at room temperature; detected with anti-GST and a peroxidase-conjugated secondary antibody
Conditions: both partners purified

B1: Recombinant HIV-1 Tat full length protein (Tat 1-101) fused to glutathione S-transferase (natural protein)
chain: MEPVDPNLEPWKHPGSQPRTACNNCYCKKCCFHCYACFTRKGLGISYGRKKRRQRRRAPQDSQTHQASLSKQPASQSRGDPTGPTESKKKVERETETDPFD
notes: Tat protein of HIV-1 group M subtype B (isolate SF2), full length protein, Tat 1-101; Endotoxin below 0.3 EU/µg; also called GST-Tat 1-101; GST-Tat1-101
B1: binds.
